Assay results from paper PMC12354254.
Several values for one entry are separate records, joined by “and”; a condition that tells them apart may be missing. Identical values can stand only once.

Target: Brucella ovis PhyK (HWE-family histidine kinase, BOV_1602) (Brucella ovis)
Assay: SEC

Brucella ovis PhyK (HWE-family histidine kinase, BOV_1602) (enzyme)
stoichiometry N: 6 and 2
